Data on 2 molecules can be found in patent US20160046711A1 (Novartis, published 2016).

Experiment [1] deals with T1, cynomolgus CDH6 expressed on CHO cells (cynomolgus, UniProt A0A2K5TW62 54-790).
T1 sequence: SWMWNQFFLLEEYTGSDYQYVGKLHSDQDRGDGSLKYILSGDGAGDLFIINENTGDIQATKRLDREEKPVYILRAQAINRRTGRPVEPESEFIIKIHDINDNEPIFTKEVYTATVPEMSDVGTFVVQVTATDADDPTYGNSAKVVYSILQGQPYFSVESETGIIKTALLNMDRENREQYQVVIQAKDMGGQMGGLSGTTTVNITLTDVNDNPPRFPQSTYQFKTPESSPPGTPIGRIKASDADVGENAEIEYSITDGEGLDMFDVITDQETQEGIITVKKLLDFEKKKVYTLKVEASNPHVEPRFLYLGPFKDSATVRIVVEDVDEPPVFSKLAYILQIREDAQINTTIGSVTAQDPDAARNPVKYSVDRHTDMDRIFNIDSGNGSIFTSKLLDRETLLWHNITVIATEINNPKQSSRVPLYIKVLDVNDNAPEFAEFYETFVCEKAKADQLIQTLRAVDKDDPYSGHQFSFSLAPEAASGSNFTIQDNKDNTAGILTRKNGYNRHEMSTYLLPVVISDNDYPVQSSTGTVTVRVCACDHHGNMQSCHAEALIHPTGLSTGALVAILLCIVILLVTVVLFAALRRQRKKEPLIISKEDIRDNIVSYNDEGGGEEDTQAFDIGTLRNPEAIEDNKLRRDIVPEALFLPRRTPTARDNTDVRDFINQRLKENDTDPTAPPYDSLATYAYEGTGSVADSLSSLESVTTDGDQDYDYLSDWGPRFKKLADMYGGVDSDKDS
Put plainly: FACS titration.

Experiment [2] concerns the target T2, mouse CDH6 expressed on CHO cells (mouse, UniProt P97326 54-790).
T2 sequence (looked up): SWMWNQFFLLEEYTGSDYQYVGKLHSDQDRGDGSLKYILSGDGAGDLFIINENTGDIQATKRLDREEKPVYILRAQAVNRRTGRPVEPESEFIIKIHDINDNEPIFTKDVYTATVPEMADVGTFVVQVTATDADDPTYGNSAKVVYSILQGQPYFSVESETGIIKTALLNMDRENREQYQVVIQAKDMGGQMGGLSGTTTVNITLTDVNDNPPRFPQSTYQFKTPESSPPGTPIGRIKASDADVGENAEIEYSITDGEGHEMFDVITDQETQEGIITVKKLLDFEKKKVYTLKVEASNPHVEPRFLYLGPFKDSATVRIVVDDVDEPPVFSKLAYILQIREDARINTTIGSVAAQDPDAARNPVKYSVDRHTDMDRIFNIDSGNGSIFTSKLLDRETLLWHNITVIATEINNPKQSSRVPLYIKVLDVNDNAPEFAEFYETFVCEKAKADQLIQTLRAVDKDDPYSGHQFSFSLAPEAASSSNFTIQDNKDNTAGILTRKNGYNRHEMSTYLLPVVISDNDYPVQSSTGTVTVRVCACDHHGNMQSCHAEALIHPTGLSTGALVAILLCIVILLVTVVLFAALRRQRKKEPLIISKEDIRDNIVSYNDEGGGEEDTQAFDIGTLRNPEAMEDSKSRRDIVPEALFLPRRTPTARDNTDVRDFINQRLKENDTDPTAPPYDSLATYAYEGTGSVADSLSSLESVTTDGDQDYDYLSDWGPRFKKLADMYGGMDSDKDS
Put plainly: FACS titration.

Experiment [3] deals with T3, rat CDH6 expressed on CHO cells (rat, UniProt P55280 54-789).
T3 sequence (looked up): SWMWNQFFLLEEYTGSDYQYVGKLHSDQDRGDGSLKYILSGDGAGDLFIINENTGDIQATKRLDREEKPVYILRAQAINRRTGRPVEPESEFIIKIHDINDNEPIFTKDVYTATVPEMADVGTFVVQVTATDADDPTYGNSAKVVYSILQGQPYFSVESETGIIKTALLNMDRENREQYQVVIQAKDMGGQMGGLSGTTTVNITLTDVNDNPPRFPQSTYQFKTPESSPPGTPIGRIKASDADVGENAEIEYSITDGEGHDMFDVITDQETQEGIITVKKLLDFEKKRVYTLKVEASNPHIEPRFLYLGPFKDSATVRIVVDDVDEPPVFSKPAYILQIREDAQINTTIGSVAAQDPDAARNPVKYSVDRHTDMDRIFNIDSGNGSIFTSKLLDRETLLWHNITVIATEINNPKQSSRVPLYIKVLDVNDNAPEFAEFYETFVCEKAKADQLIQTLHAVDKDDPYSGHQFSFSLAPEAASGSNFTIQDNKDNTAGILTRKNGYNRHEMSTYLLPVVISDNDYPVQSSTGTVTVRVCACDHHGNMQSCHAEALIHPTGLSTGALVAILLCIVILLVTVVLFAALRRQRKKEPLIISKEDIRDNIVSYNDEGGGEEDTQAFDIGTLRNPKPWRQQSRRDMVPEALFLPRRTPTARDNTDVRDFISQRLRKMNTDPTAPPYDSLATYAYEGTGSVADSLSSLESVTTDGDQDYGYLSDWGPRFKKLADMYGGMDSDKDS
Put plainly: FACS titration.

The target of experiment [4] is T4, human CDH6 expressed on cells (human, UniProt P55285 54-790).
T4 sequence: T1 sequence with H300Y, R457H, G707A
Put plainly: FACS titration.

Experiment [5] concerns the target T4, human CDH6 expressed on cells. The experiment can be described thus: FACS titration. The source holds these as a separate data set.
The target of experiment [6] is T1, cynomolgus CDH6 expressed on CHO cells. Put plainly: FACS titration on CHO-cyCDH6.
The target in experiment [7] is T2, mouse CDH6 expressed on CHO cells. The experiment can be described thus: FACS titration on CHO-moCDH6.
The target in experiment [8] is T3, rat CDH6 expressed on CHO cells. Put plainly: FACS titration on CHO-ratCDH6.
The target in experiment [9] is T4, human CDH6 expressed on cells. The experiment can be described thus: FACS titration on CHO-TO-huCDH6.

Positions count from the first letter of the chain named.

B1: NOV0712 (antibody, human IgG1, kappa, V domains shown)
VH: QVQLLESGGGLVQPGGSLRLSCAASGFTFSSHGMHWVRQAPGKGLEWVSVISGSGSNTGYADSVKGRFTISRDNSKNTLYLQMNSLRAEDTAVYYCARQWGSYAFDSWGQGTLVTVSS
VL: DIQMTQSPSSLSASVGDRVTITCRASQSISSYLNWYQQKPGKAPKLLIYAVSTLQSGVPSRFSGSGSGTDFTLTISSLQPEDFATYYCQQSGTFPPTTFGQGTKVEIKR
Broadly, the EC50 is the concentration needed to bring the measured effect to its halfway point. A low value points to greater potency. For B1, the 50% effective concentration (EC50) in experiment [1] was determined as 1.07 nM; in experiment [2] it was 1.26 nM; in experiment [3], 0.814 nM; in [4] it was 0.946 nM; in experiment [5] it was 0.386 nM.

B2: NOV0712-sulfo-SPDB-DM4 (antibody, human IgG1, kappa, V domains shown)
VH: B1 VH
VL: B1 VL
modifications: sulfo-SPDB-DM4 linker/payload on antibody amines, positions not given
On to B2, for which the EC50 in [5] came out at 0.364 nM; in [6], 0.606 nM; in [7], 0.94 nM; in experiment [8], 0.637 nM; in experiment [9] it was 0.651 nM.
